Target: FHA domain of human kanadaptin (residues 149-276) (human) (UniProt Q9BWU0)
Experiment: crystal structure; crystals from 1.6 M ammonium sulfate, 0.1 M citric acid pH 5.0, 277 K; space group P2(1)2(1)2(1); tag removed; one homodimer in the asymmetric unit

stoichiometry N: 2
Substance: FHA domain of human kanadaptin (residues 149-276) (from UniProt Q9BWU0 149-276) (domain or fragment)

Reference: paper PMC4157861
